We go through one molecule from US20210395318A1 (Molecular Partners, published 2021).

The target in this test is T1, biotinylated mouse CD40 (Acro Biosystem) (mouse, UniProt P27512 24-193, limits assumed, biotinylated (sites not given)).
T1 construct: also called Bio-mCD40
T1 sequence (looked up): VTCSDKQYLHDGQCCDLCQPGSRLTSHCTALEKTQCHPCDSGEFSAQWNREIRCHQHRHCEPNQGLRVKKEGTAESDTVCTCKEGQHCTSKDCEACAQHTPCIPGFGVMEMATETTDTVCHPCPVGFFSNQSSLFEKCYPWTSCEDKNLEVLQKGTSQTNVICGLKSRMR
In words: SPR (ProteOn XPR36), bio-mCD40 on NLC chip, Protein #5 as analyte. The procedure:
All SPR measurements were performed using a ProteOn XPR36 instrument (BioRad) and a running buffer of PBS pH 7.4 containing 0.005% Tween 20® (PBST). The 1:1 Langmuir model was used for the fitting of SPR traces.
ProteOn setup for Protein #5 binding to CD40 of different species. CD40 proteins (Acro Biosystem) of different species (human, cynomolgus, mouse) were biotinylated with standard methods known in the art, resulting in bio-hCD40, bio-cCD40 and bio-mCD40 proteins. The bio-hCD40, bio-cCD40 and bio-mCD40 proteins were immobilized on an NLC chip (BioRad) to a level of respectively 300 RU, 250 RU and 300 RU. The interaction of Protein #5 with CD40 was measured by injecting Protein #5 in a serial dilution of 3, 1.5, 0.75, 0.38 and 0.19 nM with an association of 120 s and dissociation of 900 s using a constant flow of 100 μl/min. The measurement was repeated two or three times and the targets were regenerated between the individual measurements using 10 mM glycine pH 2 for 18 s at a flow of 100 μl/min. The signals were double referenced against the running buffer (PBST) treated control lanes.

B1: DARPin Protein #5 (designed binder)
chain: GSDLGKKLLEAARAGQDDEVRELLKAGADVNAKDYFSHTPLHLAARNGHLKIVEVLLKAGADVNAKDFAGKTPLHLAAADGHLEIVEVLLKAGADVNAQDIFGKTPADIAADAGHEDIAEVLQKAAGSPTPTPTTPTPTPTTPTPTPTGSDLGKKLLEAARAGQDDEVRILLAAGADVNAKDVLGWTPLHLAAFEGHLEIVEVLLKAGADVNAKDKKGWTPLQLAARTGHLEIVEVLLKAGADVNAKDHIGATPLHLAAWQGHPEIVEVLLKAGADVNAQDKSGKTPADLAADAGHEDIAEVLQKAAGSPTPTPTTPTPTPTTPTPTPTGSDLGKKLLQAARAGQLDEVRELLKAGADVNAKDTWGFTPLHIAAESGHLEIVEVLLKAGADVNAKDVQGRTPLHIAAHSGHLEIVEVLLKAGADVNAKDFRGWTPLHLAAWSGHLEIVEILLKAGADVNAQDKSGKTPADLAARAGHQDIAEVLQKAAGSPTPTPTTPTPTPTTPTPTPTGSDLGKKLLQAARAGQLDEVRELLKAGADVNAKDTWGFTPLHIAAESGHLEIVEVLLKAGADVNAKDVQGRTPLHIAAHSGHLEIVEVLLKAGADVNAKDFRGWTPLHLAAWSGHLEIVEILLKAGADVNAQDKSGKTPADLAARAGHQDIAEVLQKAA
notes: also called SMA136; Molecule No. 1
Turning to B1, the binding result is on record as “no binding (tested: 3 nM (highest concentration injected))”.
